Each block holds one molecule with its values, some of them ahead of it.
Experiments:
hIgG = experiment: ELISA of soluble fractions of native and mutated WW domains against hIgG; assay type: binding; conditions: human IgG, soluble fraction, ABTS
Protocol: The soluble fraction of 100 mL cultures (100 μL) was used for ELISA against hIgG, as described in ([Dias et al., 2025]). Briefly, the target hIgG was immobilized (1 μg/well) in 0.1 M Sodium Bicarbonate pH 8.6 in Immuno Maxisorp ELISA plates (Thermo Fisher), overnight at 4 °C. In the next day, the unbound hIgG was removed, and the wells washed with PBS1x. To the wells was added the blocking solution – 5% (v/v) Soya Milk in PBS 1x and incubated for 1 h at room temperature. The wells were washed and incubated with 100 µL of soluble fraction (∼0.065 mg/mL total protein) at room temperature for 2 h.
The unbound WW domains were removed, and the wells were washed using 4 times PBS1x-0.05% Tween 20 and 1 time with PBS1x. For detection was used 1:1,000 anti-His-HRP conjugated antibody (MA1-21315-HRP, Invitrogen) in 1% (v/v) Soya Milk in PBS1x and incubated for 1 h at RT, after that the wells were washed with 5x PBS1x. The detection occurred with ABTS (2,2′-azino-bis(3-ethylbenzothiazoline-6-sulfonic acid) ready solution (11684302001, Roche), which was incubated in the dark for 1 h at 37 °C. Finally, the results were analysed in a microplate reader (Tecan) with appropriate filter at Abs405nm.
Figure S6 – Production and signal characterization of mutated versions. A – Tris-Tricine gels after cell lysis of the WW prototype sequence (WWp, band at ~8KDa), mutated WWp5_4 scaffold (WWp5_4_M2, band at ~8 kDa) and mutated E6 (E6_M2, band at ~ 12kDa). Samples were normalized 90µg total protein/lane. M - Precision Plus Protein™ Dual Xtra Prestained, Biorad; SF – soluble fraction; ISF – insoluble fraction. B1, B2, and B3 indicate production batchs in 1L culture, except for WWp B1 – 100 mL, WWp_5_4 B2 – 900 mL. Stained with Simplyblue. […] The detection of the clones was made with anti-His conjugated antibody with HRP and detected with ABTS as substrate.
Figure S7 – Comparison between ELISA signal of E6 versus E6_M2. […] The expression levels were detected by direct coating of the microplate well with the soluble fraction of the extract. […] All were detected with ABTS as substrate.

[1] = Solubility / precipitation observed during production, dialysis and purification; assay type: physicochemical
Protocol: Therefore, after expression the soluble fractions were further centrifuged at 42,000 g for 20 min at 4 °C. As the samples were diluted (∼5 mg/mL in 25 mL lysis buffer), the soluble fractions were lyophilized and resuspended in 4 mL of water. The samples were dialyzed (Membranes Spectra Pre-Treated 1 kDa, Carl Roth) to Binding buffer without imidazole (20 mM Sodium Phosphate, 500 mM Sodium Chloride pH 7.4) for 24 h at 16 °C. The samples were quantified by […] (typically ∼6 mg/mL), this solution was diluted 1:2 in Binding buffer (20 mM Sodium Phosphate, 500 mM Sodium Chloride, 20 mM imidazole pH 7.4) and purified in a gravitational flow with 6 mL of resin (IMAC Sepharose 6 Fast Flow (Ni^2+), Cytiva) packed in a PD-10 column. The column was prepared using the indications of the manufacturer. The binding of the protein to the column was maximized by an incubation for 1 h at room temperature in agitation at 40rpm. The resin was washed 4 x column volumes (CV) with binding buffer. The elution as achieved by incubation for 15min with elution buffers. We used a gradient with 3 x CV elution buffer 1 (binding buffer with 100 mM imidazole) and 3 x CV elution buffer 2 (binding buffer with 200 mM imidazole).
The most enriched elutions in WW domains (60%–70% purity) were combined and dialysed against PBS1x (10 mM Na2HPO4, 1.8 mM KH2PO4, 2.7 mM KCl, 137 mM NaCl pH 7.4) with routine changes of buffer up to 48 h at 16 °C. Following the samples were concentrated with a Amicon-Ultra15 3 kDa MWCO (Millipore) with centrifugation conditions 4,900 g, 30 min, 4 °C. The final samples were quantified by BCA assay.
Size Exclusion Chromatography (SEC). The samples were further purified by SEC to achieve 90% purity in a AKTA system (Cytiva). The column Superdex 75 Increase 10/300 GL (29148721, Cytiva) was washed with water and equilibrated 2CV in PBS1x, as described by the manufacturer. As calibrants we prepare a mixture: 2 mg/mL of Bovine Serum Albumin (66 kDa, BP9702-100, FisherScientific), Ovalbumin (42 kDa, A5503-1G, Sigma), Chicken Lysozyme ([…], 62,971–10G-F, Fluka) and hPin1_WW chemically synthesized (5 kDa, produced in ([Dias et al., 2015])) in PBS 1x, this sample was filtered with 0.2 µm PES (514–0073, VWR) and analysed. The operation conditions: flow 0.5 mL/min, 0.05 CV in PBS1x and injection of 250 µL and run for 2 CV with PBS 1x at 16 °C. The same method was used for the WW domain samples. After purifications samples were quantified for total protein by BCA assay, as described previously and used for characterization.

[2] = biological target: human IgG conjugated with fluorescein isothiocyanate (IgG-FITC) (human); experiment: MST; IgG-FITC fixed at 50 nM; 16 serial dilutions of E6 from 23.5 uM to 0.7 nM; 50 mM MOPS, 0.05% Tween-20, pH 7; 25 C; fit models Kd and Hill
[3] = biological target: human IgG conjugated with fluorescein isothiocyanate (IgG-FITC) (human); experiment: MST; hIgG-FITC (Sigma F9636) fixed at 25 nM; 16 samples of E6_M2_T2 from 695 nM in 1:2 serial dilution; PBS, 0.05% Tween-20, pH 7.4; 25 C; fit models Kd and Hill

Molecule: C S GK LPPGW E E R KTRRFKLG R TYYYNHHILSKTS Q W EH PR G SS [Clone E6_M2, E6 with mutated framework and N-terminal Cys]
- binding signal relative to negative control (E. coli Rosetta extract) (hIgG; E6 detected with anti-HA-HRP, E6_M2 and Rosetta extract with anti-His-HRP): 2 times
- binding signal relative to scaffold framework (WWp5_4) (hIgG; anti-His-HRP, Abs405nm): 2 times
- solubility compared with native counterpart E6 ([1]; IMAC purification without chaotropic agents): higher solubility than the native counterpart
- precipitation / solubility after dialysis ([1]; dialysis against PBS1x pH 7.4, up to 48 h at 16 °C): some precipitation

- EC50 [2]: 0.146 µM
- Kd [2]: 0.133 µM
B1: E6 (lead ligand, WWp5_4 scaffold), without tag (designed binder)
chain: SMGLPPGWDEYKTRRFKLGKTYYYNHHILSKTSTWTDPRMSS

- EC50 [3]: 0.157 µM
- Kd [3]: 0.062 µM
B2: E6_M2_T2 (head-to-tail dimer of E6_M2) (designed binder)
chain: CSGKLPPGWEERKTRRFKLGRTYYYNHHILSKTSQWEHPRGSSSGKLPPGWEERKTRRFKLGRTYYYNHHILSKTSQWEHPRGSS

From article PMC12647017, “Discovery and optimization of a synthetic small protein domain targeting antibodies” (Frontiers in Bioengineering and Biotechnology, 2025)
